Consider 61 sequences from the supplement of paper PMC7877785.

The nature of the data set: self-splicing fitness, log relative to wild type (ln ratio); higher = more splicing; Tetrahymena group I intron in knt gene, E. coli kanamycin selection, DiMSum; sequences stand for … in CUCUCU…GGAGGGAAAAGUUAUCAGGCAUGCACCUGGUAGCUAGUCUUUAAACCAAUAGAUUGCAUCGGUUUAAAAGGCAAGACCGUCAAAUUGCGGGAAAGGGGUCAACAGCCGUUCAGUACCAAGUCUCAGGGGAAACUUUGAGAUGGCCUUGCAAAGGGUAUGGUAAUAAGCUGACGGACAUGGUCCUAACCACGCAGCCAAGUCCUAAGUCAACAGAUCUUCUGUUGAUAUGGAUGCAGUUCACAGACUAAAUGUCGGUCGGGGAAGAUGUAUUCUUCUCAUAAGAUAUAGUCGGACCUCUCCUUAAUGGGAGCUAGCGGAUGAAGUGAUGCAACACUGGAGCCGCUGGGAACUAAUUUGUAUGCGAAAGUAUAUUGAUUAGUUUUGGAGUACUCGUGGUCG
In short, it runs like this:
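Fitness was computed with DiMSum as the error-weighted combination of replicate fold changes, kanamycin versus none, each normalised to wild type. The library randomised all eight intron nucleotides of the P1ex region, with the intron placed in the knt kanamycin-resistance gene on pET-22b(+) in E. coli BL21(DE3). Six replicate transformations were grown overnight at 37°C or 30°C on LB agar with or without 25 μg/mL kanamycin, plus 100 μg/mL carbenicillin, 50 μM IPTG and 0.2% rhamnose. Pooled colonies were amplicon-sequenced on an Illumina HiSeq 2500.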

± gives the uncertainty stated by the source.

Regarding UGACAGCAAUAUUACGCGGA, the “self-splicing fitness (ln)” value by setting is: (30 °C) -1.75 ± 0.12; (37 °C) -1 ± 0.097.

With UGACAGCAAUAUUACGGCUG, the “self-splicing fitness (ln)” value was -2.28 ± 0.18 (30 °C) and -0.623 ± 0.15 (37 °C).

As to UGACAGCAAUAUUACGGGUU, the “self-splicing fitness (ln)” value is -4.59 ± 0.41 (30 °C) and -2.79 ± 0.2 (37 °C).

Take UGACAGCAAUAUUACGGUAG: the “self-splicing fitness (ln)” value was -0.921 ± 0.067 (30 °C) and -0.41 ± 0.074 (37 °C).

On to UGACAGCAAUAUUACGGUGU, for which the “self-splicing fitness (ln)” value runs as follows: (30 °C) -4.28 ± 0.23; (37 °C) -2.52 ± 0.19.

As to UGACAGCAAUAUUACGUCAU, the “self-splicing fitness (ln)” value by setting is: (30 °C) -3.99 ± 0.27; (37 °C) -2.48 ± 0.18.

On to UGACAGCAAUAUUACGUCGU, for which the “self-splicing fitness (ln)” value by setting is: (30 °C) -1.56 ± 0.15; (37 °C) -3.25 ± 0.24.

Take UGACAGCAAUAUUACGUCUU: the “self-splicing fitness (ln)” value is, setting by setting: (30 °C) -0.839 ± 0.049; (37 °C) -0.539 ± 0.07.

In the case of UGACAGCAAUAUUACGUGAA, the “self-splicing fitness (ln)” value was -1.94 ± 0.076 (30 °C) and -0.332 ± 0.094 (37 °C).

As to UGACAGCAAUAUUACGUGAU, the “self-splicing fitness (ln)” value is, setting by setting: (30 °C) -3.05 ± 0.11; (37 °C) -0.351 ± 0.084.

Consider UGACAGCAAUAUUACGUGGC, for which the “self-splicing fitness (ln)” value is -4.11 ± 0.28 (30 °C) and -3.11 ± 0.37 (37 °C).

Consider UGAGAGCAAUAUUACGAAGA, for which the “self-splicing fitness (ln)” value runs as follows: (30 °C) -1.45 ± 0.29; (37 °C) -2.35 ± 0.42.

As for UGAGAGCAAUAUUACGAGUA, the “self-splicing fitness (ln)” value is, setting by setting: (30 °C) -2.37 ± 0.49; (37 °C) -2.16 ± 0.46.

In the case of UGAGAGCAAUAUUACGAGUU, the “self-splicing fitness (ln)” value runs as follows: (30 °C) -3.31 ± 0.23; (37 °C) -2.3 ± 0.34.

On to UGAGAGCAAUAUUACGAUCA, for which the “self-splicing fitness (ln)” value is -1.62 ± 0.22 (30 °C) and -1.1 ± 0.25 (37 °C).

As to UGAGAGCAAUAUUACGCACA, the “self-splicing fitness (ln)” value was -2.08 ± 0.3 (30 °C) and -0.659 ± 0.35 (37 °C).

With UGAGAGCAAUAUUACGCCCG, the “self-splicing fitness (ln)” value reads like this: (30 °C) -3.12 ± 0.3; (37 °C) -0.718 ± 0.21.

As to UGAGAGCAAUAUUACGCGGU, the “self-splicing fitness (ln)” value (37 °C) was -0.929 ± 0.39.

Regarding UGAGAGCAAUAUUACGUACG, the “self-splicing fitness (ln)” value is, setting by setting: (30 °C) -2.03 ± 0.13; (37 °C) -1.59 ± 0.22.

On to UGAGAGCAAUAUUACGUCAG, for which, for the setting “37 °C”, the “self-splicing fitness (ln)” value was -3.02 ± 0.31.

For the sequence UGAGAGCAAUAUUACGUCAU, the “self-splicing fitness (ln)” value (30 °C) was -1.71 ± 0.26.

As to UGAGAGCAAUAUUACGUCGU, the “self-splicing fitness (ln)” value reads like this: (30 °C) -2.38 ± 0.2; (37 °C) -2.64 ± 0.36.

UGAUAGCAAUAUUACGAACU: the “self-splicing fitness (ln)” value is -1.03 ± 0.12 (30 °C) and 0.402 ± 0.11 (37 °C).

As for UGAUAGCAAUAUUACGACUG, the “self-splicing fitness (ln)” value (30 °C) was determined as 0.053 ± 0.18 and the “self-splicing fitness (ln)” value (37 °C) was -0.49 ± 0.17.

Take UGAUAGCAAUAUUACGAGGU: the “self-splicing fitness (ln)” value is, setting by setting: (30 °C) -3.79 ± 0.24; (37 °C) -3.13 ± 0.25.

On to UGAUAGCAAUAUUACGCUAU, for which the “self-splicing fitness (ln)” value by setting is: (30 °C) -3.98 ± 0.47; (37 °C) -2.04 ± 0.27.

With UGAUAGCAAUAUUACGCUGG, the “self-splicing fitness (ln)” value by setting is: (30 °C) -1.15 ± 0.11; (37 °C) -0.645 ± 0.12.

As to UGAUAGCAAUAUUACGGAAC, the “self-splicing fitness (ln)” value (37 °C) is -1.21 ± 0.42.

With UGAUAGCAAUAUUACGGAAU, the “self-splicing fitness (ln)” value was -2.96 ± 0.18 (30 °C) and -2 ± 0.23 (37 °C).

In the case of UGAUAGCAAUAUUACGGAGU, the “self-splicing fitness (ln)” value was -3.8 ± 0.37 (30 °C) and -2.42 ± 0.41 (37 °C).

As to UGAUAGCAAUAUUACGGAUC, the “self-splicing fitness (ln)” value was -2.86 ± 0.22 (30 °C) and -2.13 ± 0.3 (37 °C).

Regarding UGAUAGCAAUAUUACGGCAC, the “self-splicing fitness (ln)” value by setting is: (30 °C) -2.97 ± 0.33; (37 °C) -1.51 ± 0.43.

In the case of UGAUAGCAAUAUUACGGCCU, the “self-splicing fitness (ln)” value was -0.718 ± 0.097 (30 °C) and -0.609 ± 0.15 (37 °C).

In the case of UGAUAGCAAUAUUACGGCGA, the “self-splicing fitness (ln)” value by setting is: (30 °C) -0.745 ± 0.093; (37 °C) -0.477 ± 0.13.

In the case of UGAUAGCAAUAUUACGGCUA, the “self-splicing fitness (ln)” value (30 °C) is -0.455 ± 0.14 and the “self-splicing fitness (ln)” value (37 °C) was 0.0243 ± 0.14.

Turning to UGAUAGCAAUAUUACGGGAA, the “self-splicing fitness (ln)” value is -2.65 ± 0.2 (30 °C) and -2.44 ± 0.21 (37 °C).

UGAUAGCAAUAUUACGGGGG: the “self-splicing fitness (ln)” value is, setting by setting: (30 °C) -1.83 ± 0.18; (37 °C) -2.45 ± 0.28.

Take UGAUAGCAAUAUUACGGUGA: the “self-splicing fitness (ln)” value (30 °C) is -1.46 ± 0.16 and the “self-splicing fitness (ln)” value (37 °C) is -0.637 ± 0.19.

Turning to UGAUAGCAAUAUUACGGUUG, the “self-splicing fitness (ln)” value runs as follows: (30 °C) -0.902 ± 0.072; (37 °C) 0.392 ± 0.11.

Consider UGAUAGCAAUAUUACGUAAG, for which the “self-splicing fitness (ln)” value is, setting by setting: (30 °C) -1.52 ± 0.093; (37 °C) -0.601 ± 0.11.

Turning to UGAUAGCAAUAUUACGUACU, the “self-splicing fitness (ln)” value is, setting by setting: (30 °C) 0.125 ± 0.1; (37 °C) -0.524 ± 0.11.

Turning to UGAUAGCAAUAUUACGUAUU, the “self-splicing fitness (ln)” value runs as follows: (30 °C) -3.26 ± 0.25; (37 °C) -2.34 ± 0.29.

Take UGAUAGCAAUAUUACGUGCC: the “self-splicing fitness (ln)” value by setting is: (30 °C) -2.61 ± 0.2; (37 °C) -1.26 ± 0.2.

With UGAUAGCAAUAUUACGUUAG, the “self-splicing fitness (ln)” value is, setting by setting: (30 °C) -1.92 ± 0.1; (37 °C) -1.57 ± 0.15.

As for UGAUAGCAAUAUUACGUUAU, the “self-splicing fitness (ln)” value (30 °C) is -3.61 ± 0.18 and the “self-splicing fitness (ln)” value (37 °C) was -2.52 ± 0.17.

Regarding UGAUAGCAAUAUUACGUUUU, the “self-splicing fitness (ln)” value runs as follows: (30 °C) -3.75 ± 0.16; (37 °C) -1.85 ± 0.14.

For the sequence UGCAAGCAAUAUUACGAAAC, the “self-splicing fitness (ln)” value (37 °C) is -2.65 ± 0.36.

Regarding UGCAAGCAAUAUUACGACAU, the “self-splicing fitness (ln)” value (30 °C) is -1.679 ± 0.013 and the “self-splicing fitness (ln)” value (37 °C) is -0.674 ± 0.032.

As to UGCAAGCAAUAUUACGACGG, the “self-splicing fitness (ln)” value was -0.954 ± 0.074 (30 °C) and -0.946 ± 0.079 (37 °C).

As to UGCAAGCAAUAUUACGAGAG, the “self-splicing fitness (ln)” value is -3.4 ± 0.2 (30 °C) and -2.97 ± 0.21 (37 °C).

In the case of UGCAAGCAAUAUUACGAUAG, the “self-splicing fitness (ln)” value (30 °C) was -1.09 ± 0.067 and the “self-splicing fitness (ln)” value (37 °C) is -0.0803 ± 0.085.

UGCAAGCAAUAUUACGCCAU: the “self-splicing fitness (ln)” value (30 °C) was -4.18 ± 0.42 and the “self-splicing fitness (ln)” value (37 °C) is -1.87 ± 0.29.

As for UGCAAGCAAUAUUACGCCCG, the “self-splicing fitness (ln)” value runs as follows: (30 °C) -0.288 ± 0.18; (37 °C) 0.109 ± 0.2.

On to UGCAAGCAAUAUUACGCCGU, for which the “self-splicing fitness (ln)” value is -2.38 ± 0.36 (30 °C) and -1.81 ± 0.25 (37 °C).

In the case of UGCAAGCAAUAUUACGCGUU, the “self-splicing fitness (ln)” value was -2.66 ± 0.16 (30 °C) and -1.29 ± 0.14 (37 °C).

As for UGCAAGCAAUAUUACGCUAA, the “self-splicing fitness (ln)” value was -2.73 ± 0.17 (30 °C) and 0.000151 ± 0.11 (37 °C).

UGCAAGCAAUAUUACGCUCA: the “self-splicing fitness (ln)” value (30 °C) was -0.11 ± 0.16 and the “self-splicing fitness (ln)” value (37 °C) turned out to be 0.138 ± 0.2.

In the case of UGCAAGCAAUAUUACGGAGG, the “self-splicing fitness (ln)” value runs as follows: (30 °C) -3.21 ± 0.19; (37 °C) -1.42 ± 0.16.

Take UGCAAGCAAUAUUACGGAUU: the “self-splicing fitness (ln)” value (30 °C) is -2.63 ± 0.11 and the “self-splicing fitness (ln)” value (37 °C) was -1.84 ± 0.14.

In the case of UGCAAGCAAUAUUACGGUAA, the “self-splicing fitness (ln)” value is -1.08 ± 0.12 (30 °C) and -0.838 ± 0.11 (37 °C).

Turning to UGCAAGCAAUAUUACGGUGU, the “self-splicing fitness (ln)” value by setting is: (30 °C) -3.9 ± 0.23; (37 °C) -2.92 ± 0.24.
